Source: paper PMC11350156

What was measured:
6xHis-IE2(87-579) [1] = molecular target: T1, 6xHis-IE2(87-579) (Human cytomegalovirus, UniProt Q6SWP7 87-579); assay: ELISA
T1 sequence: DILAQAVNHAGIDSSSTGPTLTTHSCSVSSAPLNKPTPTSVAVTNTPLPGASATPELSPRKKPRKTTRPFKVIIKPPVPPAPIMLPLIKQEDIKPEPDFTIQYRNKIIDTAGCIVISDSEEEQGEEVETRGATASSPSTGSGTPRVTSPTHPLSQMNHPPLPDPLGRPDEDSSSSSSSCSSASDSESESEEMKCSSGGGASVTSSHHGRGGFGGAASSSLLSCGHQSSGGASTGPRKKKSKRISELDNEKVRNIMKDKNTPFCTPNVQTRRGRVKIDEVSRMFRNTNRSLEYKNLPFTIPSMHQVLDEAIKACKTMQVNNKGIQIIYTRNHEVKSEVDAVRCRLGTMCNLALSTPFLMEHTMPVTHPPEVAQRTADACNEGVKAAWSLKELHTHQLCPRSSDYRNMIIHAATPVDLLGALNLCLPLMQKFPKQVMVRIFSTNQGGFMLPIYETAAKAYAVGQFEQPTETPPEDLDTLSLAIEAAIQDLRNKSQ

UL84-6xHis [2] = molecular target: T2, UL84-6xHis (Human cytomegalovirus, UniProt P16727 1-586); assay: ELISA
T2 sequence: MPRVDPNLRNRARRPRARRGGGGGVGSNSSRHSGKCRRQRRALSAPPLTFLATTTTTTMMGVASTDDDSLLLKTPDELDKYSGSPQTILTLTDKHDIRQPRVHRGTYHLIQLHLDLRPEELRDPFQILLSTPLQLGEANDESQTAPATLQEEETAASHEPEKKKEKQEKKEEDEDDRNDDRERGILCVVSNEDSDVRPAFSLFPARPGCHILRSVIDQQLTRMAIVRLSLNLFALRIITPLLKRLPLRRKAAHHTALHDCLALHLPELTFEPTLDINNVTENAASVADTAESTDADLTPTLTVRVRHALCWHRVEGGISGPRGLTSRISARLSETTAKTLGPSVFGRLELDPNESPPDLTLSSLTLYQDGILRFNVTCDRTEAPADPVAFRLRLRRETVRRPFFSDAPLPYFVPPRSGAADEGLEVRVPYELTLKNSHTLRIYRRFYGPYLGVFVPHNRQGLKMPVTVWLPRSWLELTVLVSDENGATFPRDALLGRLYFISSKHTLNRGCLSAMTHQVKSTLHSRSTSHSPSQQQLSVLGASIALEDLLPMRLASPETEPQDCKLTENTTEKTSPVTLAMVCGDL

6xHis-UL44(1-290) [3] = molecular target: T3, 6xHis-UL44(1-290) (Human cytomegalovirus, UniProt P16790 1-290); assay: ELISA
T3 sequence (P16790 1-290): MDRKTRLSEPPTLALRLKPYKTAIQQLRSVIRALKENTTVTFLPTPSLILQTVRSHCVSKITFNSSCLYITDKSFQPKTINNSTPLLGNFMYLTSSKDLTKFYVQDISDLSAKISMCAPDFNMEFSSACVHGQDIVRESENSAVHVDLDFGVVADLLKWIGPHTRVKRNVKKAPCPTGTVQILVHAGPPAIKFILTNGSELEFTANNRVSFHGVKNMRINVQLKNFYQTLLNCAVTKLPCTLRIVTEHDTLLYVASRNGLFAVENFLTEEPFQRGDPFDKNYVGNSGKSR

6xHis-IE2(87-579) [4] = molecular target: T1, 6xHis-IE2(87-579); assay: pull-down
UL84-6xHis [5] = molecular target: T2, UL84-6xHis; assay: pull-down
6xHis-UL44(1-290) [6] = molecular target: T3, 6xHis-UL44(1-290); assay: pull-down
6xHis-IE2(87-579) [7] = molecular target: T1, 6xHis-IE2(87-579); assay: pull-down immunoblot
UL84-6xHis [8] = molecular target: T2, UL84-6xHis; assay: pull-down immunoblot
6xHis-UL44(1-290) [9] = molecular target: T3, 6xHis-UL44(1-290); assay: pull-down immunoblot

AAGGGGGGGGGTGAGGGGGGGGGGTT (structured_DNA) [oriG4-1] was tested, and the Kd (6xHis-IE2(87-579) [1]) was 123 nM, the Kd (UL84-6xHis [2]) was 14.2 nM and the Kd (6xHis-UL44(1-290) [3]) was 25.5 nM.

AAGGAGAGAGGTGAGGAGGAAAGGTT (ssDNA) [oriG4-1m]: no binding (6xHis-IE2(87-579) [4]); no binding (UL84-6xHis [5]); no binding (6xHis-UL44(1-290) [6]).

AAGGGAAAGGGTGAGGGGGGGGGGTT (structured_DNA) [oriG4-1 L1]: binds (6xHis-IE2(87-579) [7]); binds (UL84-6xHis [8]); binds (6xHis-UL44(1-290) [9]).
